Measurements published in patent publication US10647775B2.

biological target: recombinant, biotinylated, Human 4-1BB/TNFRSF9/CD137-Fc (human) (UniProt Q07011); experiment: phage ELISA of rescued clones
Sequence (Q07011 24-186 limits assumed): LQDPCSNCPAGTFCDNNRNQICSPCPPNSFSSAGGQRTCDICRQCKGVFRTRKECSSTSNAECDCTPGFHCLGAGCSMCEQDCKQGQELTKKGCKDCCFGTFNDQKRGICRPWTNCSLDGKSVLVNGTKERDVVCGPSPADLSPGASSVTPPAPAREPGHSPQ

| ELISA absorbance (average) | Binder |
| --- | --- |
| 0.353 | bb10 (designed binder) MGSWAEFKQRLAAIKTRLEALGGSEAELAAFLGEIWAFEMELAAYKGKGNPEVEALGREAAAIRMELQAYRHN |

biological target: recombinant, biotinylated, Human 4-1BB/TNFRSF9/CD137-Fc (human) (UniProt Q07011); experiment: phage ELISA, CD137-Fc against control IgG Fc

| ELISA ratio (target to background) | Binder |
| --- | --- |
| 5.27 | bb10 (designed binder) MGSWAEFKQRLAAIKTRLEALGGSEAELAAFLGEIWAFEMELAAYKGKGNPEVEALGREAAAIRMELQAYRHN |

biological target: IgG Fc (control); experiment: phage ELISA of rescued clones on control IgG Fc

| ELISA absorbance (average) | Binder |
| --- | --- |
| 0.067 | bb10 (designed binder) MGSWAEFKQRLAAIKTRLEALGGSEAELAAFLGEIWAFEMELAAYKGKGNPEVEALGREAAAIRMELQAYRHN |

biological target: CD47-Fc (Homo sapiens (Human)) (UniProt Q08722); experiment: phage ELISA, target-Fc against non-specific control (IgG1-Fc)
Sequence (Q08722 19-139 limits assumed): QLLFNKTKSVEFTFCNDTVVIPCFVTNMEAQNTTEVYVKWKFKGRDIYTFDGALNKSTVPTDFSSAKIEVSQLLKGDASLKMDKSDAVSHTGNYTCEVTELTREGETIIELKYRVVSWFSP

| ELISA ratio (target to background) | Binder |
| --- | --- |
| 8.23 | DBDpp of SEQ ID NO: 23 (designed binder) MGSWTEFVGRLAAIEFRLWALGGSEAELAWFEAHIAFFEDYLQWYKGKGNPEVEALREEAGAIMEELKAYRHN |
| 4.58 | DBDpp of SEQ ID NO: 24 (designed binder) MGSWTEFYSRLEAIWVRLQALGGSEAELAMFEDRIAHFEWFLQQYKGKGNPEVEALHEEAIAIRKELAAYRHN |
| 14.1 | DBDpp of SEQ ID NO: 20 (designed binder) MGSWYEFDLRLHAIYDRLVALGGSEAELAAFEKEIAAFESELQAYKGKGNPEVEILRDNAAYIRQMLQAYRHN |
| 11.7 | DBDpp of SEQ ID NO: 22 (designed binder) MGSWAEFDHRLHAIRERLHALGGSEAELAAFEKEIAAFESELQAYKGKGNPEVEILRGNAAYIRALLQAYRHN |
| 12.5 | DBDpp of SEQ ID NO: 21 (designed binder) MGSWTEFTYRLSAIEWRLWALGGSEAELAWFEQKIAFFEDFLQYYKGKGNPEVEALKHEAGAILNELMAYRHN |

biological target: CTLA4-Fc (Homo sapiens (Human)) (UniProt P16410); experiment: as above
Sequence (P16410 37-162 limits assumed): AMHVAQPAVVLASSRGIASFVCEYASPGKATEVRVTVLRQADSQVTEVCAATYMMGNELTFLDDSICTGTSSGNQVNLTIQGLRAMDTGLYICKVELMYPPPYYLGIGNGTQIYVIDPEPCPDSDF

| ELISA ratio (target to background) | Binder |
| --- | --- |
| 2.95 | DBDpp of SEQ ID NO: 25 (designed binder) MGSWHEFHDRLQAIHERLYALGGSEAELAAFEKEIAAFESELQAYKGKGNPEVESLRIAAAHIRQVLQAYRHN |

biological target: DR5-Fc (Homo sapiens (Human)) (UniProt O14763); experiment: as above
Sequence (O14763 56-182 limits assumed): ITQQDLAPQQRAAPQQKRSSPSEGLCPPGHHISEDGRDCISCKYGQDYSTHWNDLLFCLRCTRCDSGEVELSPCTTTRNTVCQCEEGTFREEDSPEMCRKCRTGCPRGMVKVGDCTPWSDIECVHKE

| ELISA ratio (target to background) | Binder |
| --- | --- |
| 13 | DBDpp of SEQ ID NO: 26 (designed binder) MGSWNYFKDHLAWIKNSLEALGGSEAELAHFETAIASFERQLQEYKGKGNPEVEALRKEAAAIRDELQAYRHN |
| 11.4 | DBDpp of SEQ ID NO: 30 (designed binder) MGSWHYFKDHLAEIKGLLEALGGSEAELAHFEMAIADFEHNLQYYKGKGNPEVEALRKEAAAIRDELQAYRHN |
| 12.3 | DBDpp of SEQ ID NO: 27 (designed binder) MGSWLYFKEHLAHIKAWLEALGGSEAELAHFELAIADFEYHLQEYKGKGNPEVEALRKEAAAIRDELQAYRHN |
| 11.8 | DBDpp of SEQ ID NO: 29 (designed binder) MGSWFYFKQHLAWIKSYLEALGGSEAELAHFERAIAAFEQHLQMYKGKGNPEVEALRKEAAAIRDELQAYRHN |
| 9.75 | DBDpp of SEQ ID NO: 34 (designed binder) MGSWWLFKDHLAEIKTALEALGGSEAELAHFEMAIAAFEKQLQYYKGKGNPEVEALRKEAAAIRDELQAYRHN |
| 10.8 | DBDpp of SEQ ID NO: 31 (designed binder) MGSWHYFKGHLAEIKNHLEALGGSEAELAHFERAIAAFERSLQWYKGKGNPEVEALRKEAAAIRDELQAYRHN |
| 12.1 | DBDpp of SEQ ID NO: 28 (designed binder) MGSWVYFKEHLAWIKTELEALGGSEAELAHFEHSIADFEMSLQFYKGKGNPEVEALRKEAAAIRDELQAYRHN |
| 10.7 | DBDpp of SEQ ID NO: 32 (designed binder) MGSWIYFKEHLAYIKKELEALGGSEAELAHFESAIAVFESTLQYYKGKGNPEVEALRKEAAAIRDELQAYRHN |
| 10.3 | DBDpp of SEQ ID NO: 33 (designed binder) MGSWTYFKEHLAEIKYMLEALGGSEAELAHFEVAIADFEKMLQYYKGKGNPEVEALRKEAAAIRDELQAYRHN |

biological target: KIR-Fc; experiment: as above

| ELISA ratio (target to background) | Binder |
| --- | --- |
| 8.4 | DBDpp of SEQ ID NO: 35 (designed binder) MGSWSEFYNRLDAIESRLLALGGSEAELALFEIQIARFEKVLQAYKGKGNPEVEALRGEARAIFAELYAYRHN |
| 4.17 | DBDpp of SEQ ID NO: 37 (designed binder) MGSWLWFKIFLAEIKYFLEALGGSEAELAAFDFEIHAFHVELFAYKGKGNPEVEVLREVAAEIRWDLQAYRHN |
| 4.24 | DBDpp of SEQ ID NO: 36 (designed binder) MGSWYEFYNRLYAIEIRLYALGGSEAELAAFEKEIAAFESELQAYKGKGNPEVERLRVRAAKIRVILQAYRHN |

biological target: PD-L1-Fc (human) (UniProt Q9NZQ7); experiment: as above
Sequence (Q9NZQ7 19-239 limits assumed): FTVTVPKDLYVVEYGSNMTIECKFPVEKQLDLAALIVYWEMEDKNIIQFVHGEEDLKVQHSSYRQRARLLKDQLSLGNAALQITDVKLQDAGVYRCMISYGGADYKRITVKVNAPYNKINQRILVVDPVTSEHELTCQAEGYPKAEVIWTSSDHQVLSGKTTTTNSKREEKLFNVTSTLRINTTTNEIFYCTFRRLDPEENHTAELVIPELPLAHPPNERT

| ELISA ratio (target to background) | Binder |
| --- | --- |
| 8.68 | DBDpp of SEQ ID NO: 38 (designed binder) MGSWTEFQSRLDAIHSRLRALGGSEAELAAFEKEIAAFESELQAYKGKGNPEVELLRDDAAFIRHFLQAYRHN |
| 2.98 | DBDpp of SEQ ID NO: 43 (designed binder) MGSWYEFNHRLDAISKRLNALGGSEAELAAFEKEIAAFESELQAYKGKGNPEVEELRGDAAFIRHFLQAYRHN |
| 6.34 | DBDpp of SEQ ID NO: 40 (designed binder) MGSWYEFQNRLHAIHERLNALGGSEAELAAFEKEIAAFESELQAYKGKGNPEVELLRDDAAFIRHFLQAYRHN |
| 7.41 | DBDpp of SEQ ID NO: 39 (designed binder) MGSWQEFDDRLNAIKARLQALGGSEAELAAFEKEIAAFESELQAYKGKGNPEVEDLRDDAAFIRRFLQAYRHN |
| 4.88 | DBDpp of SEQ ID NO: 42 (designed binder) MGSWYEFESRLDAIHERLHALGGSEAELAAFEKEIAAFESELQAYKGKGNPEVENLRGDAAFIRHFLQAYRHN |
| 2.76 | DBDpp of SEQ ID NO: 44 (designed binder) MGSWFEFENRLHAIVHRLGALGGSEAELAAFEKEIAAFESELQAYKGKGNPEVETLRADAAFIRHYLQAYRHN |
| 6.01 | DBDpp of SEQ ID NO: 41 (designed binder) MGSWFEFQDRLTAINERLSALGGSEAELAAFEKEIAAFESELQAYKGKGNPEVETLRSDAAFIRRFLQAYRHN |

biological target: PD1-Fc (Homo sapiens (Human)) (UniProt Q15116); experiment: as above
Sequence (Q15116 25-167 limits assumed): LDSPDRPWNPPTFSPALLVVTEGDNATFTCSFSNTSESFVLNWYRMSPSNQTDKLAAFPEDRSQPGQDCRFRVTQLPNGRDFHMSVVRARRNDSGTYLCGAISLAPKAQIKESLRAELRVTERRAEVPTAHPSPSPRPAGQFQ

| ELISA ratio (target to background) | Binder |
| --- | --- |
| 8.13 | DBDpp of SEQ ID NO: 47 (designed binder) MGSWVMFKWLLADIKSHLEALGGSEAELAFFEGFIAAFETHLQVYKGKGNPEVEALRKEAAAIRDELQAYRHN |
| 3.29 | DBDpp of SEQ ID NO: 48 (designed binder) MGSWYAFKDYLADIKGWLEALGGSEAELAFFEIFIARFELELQAYKGKGNPEVEALRKEAAAIRDELQAYRHN |
| 17.1 | DBDpp of SEQ ID NO: 46 (designed binder) MGSWTIFKEWLAFIKTDLEALGGSEAELAFFEGWIASFEMELQKYKGKGNPEVEALRKEAAAIRDELQAYRHN |

biological target: TIM3-Fc (Homo sapiens (Human)) (UniProt Q8TDQ0); experiment: as above

| ELISA ratio (target to background) | Binder |
| --- | --- |
| 5.79 | DBDpp of SEQ ID NO: 45 (designed binder) MGSWVVFKVDLATIKYILEALGGSEAELAEFEGEIAGFEYSLQFYKGKGNPEVEALRKEAAAIRDELQAYRHN |

biological target: recombinant, biotinylated, Human 4-1BB/TNFRSF9/CD137-Fc (human) (UniProt Q07011); experiment: as above

| ELISA ratio (target to background) | Binder |
| --- | --- |
| 11.9 | DBDpp of SEQ ID NO: 16 (designed binder) MGSWFEFNHRLWAINERLYALGGSEAELAAFEKEIAAFESELQAYKGKGNPEVERLRSMAAFIRYKLQAYRHN |
| 12 | DBDpp of SEQ ID NO: 15 (designed binder) MGSWYEFSMRLWAIDQRLYALGGSEAELAAFEKEIAAFESELQAYKGKGNPEVEALRAKAAYIRWKLQAYRHN |
| 7.71 | DBDpp of SEQ ID NO: 17 (designed binder) MGSWYEFGHRLWAIDQRLYALGGSEAELAAFEKEIAAFESELQAYKGKGNPEVEYLRETAAHIRTRLQAYRHN |
| 7.26 | DBDpp of SEQ ID NO: 18 (designed binder) MGSWYEFHYRLHAIDQRLYALGGSEAELAAFEKEIAAFESELQAYKGKGNPEVEELRIKAAFIRDRLQAYRHN |
| 13 | DBDpp of SEQ ID NO: 14 (designed binder) MGSWYEFRHRLWAIDQRLYALGGSEAELAAFEKEIAAFESELQAYKGKGNPEVEGLREAAAFIRAKLQAYRHN |
| 20.6 | DBDpp of SEQ ID NO: 12 (designed binder) MGSWVEFGHRLWAIDQRLYALGGSEAELAAFEKEIAAFESELQAYKGKGNPEVEKLRQRAAFIRFRLQAYRHN |
| 16.1 | DBDpp of SEQ ID NO: 13 (designed binder) MGSWVEFANRLWAIDQRLFALGGSEAELAAFEKEIAAFESELQAYKGKGNPEVEHLRDQAAFIRHKLQAYRHN |
